The target in assay [1] is T1, human EphA2 receptor expressed on cells (HEK293-EphA2, CHO-EphA2, PC-3) (human, UniProt P29317 24-976).
T1 construct: whole, on cells; also called EphA2 transfected cells; HEK293-EphA2 overexpressing cells
As to the kind of experiment: immunofluorescence on PC-3 cells expressing endogenous EphA2 receptor, 4° C. for 30 minutes.

Assay [2] has as its target T1, human EphA2 receptor expressed on cells …. As to the kind of experiment: FACS titration on human EphA2 transfected CHO cells, anti-His-FITC detection [upper panel].
The next assay concerns the target T2, FcRn.
T2 construct: also called neonatal receptor FcRn
As to the kind of experiment: SPR. A general note: Surface plasmon resonance follows binding to a sensor surface in real time, without labels.

In assay [3] the target is T1, human EphA2 receptor expressed on cells …. As to the kind of experiment: phage ELISA on fixed HEK293 cells with doxycycline-induced EphA2 (NO DOX, 100, 50, 25 ng/ml), anti-M13-HRP.
The target of assay [4] is T3, human EphA2 recombinant protein (purified human EphA2 extracellular domain) (human, UniProt P29317 24-537).
T3 construct: extracellular domain; Biotinylated for the Octet assay; also called hEphA2; huEphA2
T3 sequence (P29317 24-537): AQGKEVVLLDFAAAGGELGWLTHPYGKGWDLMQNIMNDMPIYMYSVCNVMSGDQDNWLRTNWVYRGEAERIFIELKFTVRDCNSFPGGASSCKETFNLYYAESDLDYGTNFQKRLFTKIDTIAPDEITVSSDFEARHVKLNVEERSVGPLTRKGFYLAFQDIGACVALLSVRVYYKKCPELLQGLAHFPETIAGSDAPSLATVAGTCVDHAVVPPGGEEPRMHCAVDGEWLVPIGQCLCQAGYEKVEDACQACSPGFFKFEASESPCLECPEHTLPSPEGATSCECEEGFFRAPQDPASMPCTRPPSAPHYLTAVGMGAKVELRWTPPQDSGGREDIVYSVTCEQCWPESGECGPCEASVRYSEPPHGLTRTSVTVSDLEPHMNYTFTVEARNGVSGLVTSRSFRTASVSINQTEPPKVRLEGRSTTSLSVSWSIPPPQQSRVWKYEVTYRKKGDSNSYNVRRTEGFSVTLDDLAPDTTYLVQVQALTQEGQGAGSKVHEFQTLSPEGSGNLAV
As to the kind of experiment: phage ELISA on coated hEphA2, anti-M13-HRP, developed 30 min. For orientation: In an ELISA, binding on a coated surface is turned into a signal by an enzyme label.

The target in assay [5] is BSA (bovine serum albumin, control) (bovine, UniProt P02769 25-607). Nature of the assay: phage ELISA on coated BSA, anti-M13-HRP.
BSA (bovine serum albumin, control), sequence (P02769 25-607 limits assumed): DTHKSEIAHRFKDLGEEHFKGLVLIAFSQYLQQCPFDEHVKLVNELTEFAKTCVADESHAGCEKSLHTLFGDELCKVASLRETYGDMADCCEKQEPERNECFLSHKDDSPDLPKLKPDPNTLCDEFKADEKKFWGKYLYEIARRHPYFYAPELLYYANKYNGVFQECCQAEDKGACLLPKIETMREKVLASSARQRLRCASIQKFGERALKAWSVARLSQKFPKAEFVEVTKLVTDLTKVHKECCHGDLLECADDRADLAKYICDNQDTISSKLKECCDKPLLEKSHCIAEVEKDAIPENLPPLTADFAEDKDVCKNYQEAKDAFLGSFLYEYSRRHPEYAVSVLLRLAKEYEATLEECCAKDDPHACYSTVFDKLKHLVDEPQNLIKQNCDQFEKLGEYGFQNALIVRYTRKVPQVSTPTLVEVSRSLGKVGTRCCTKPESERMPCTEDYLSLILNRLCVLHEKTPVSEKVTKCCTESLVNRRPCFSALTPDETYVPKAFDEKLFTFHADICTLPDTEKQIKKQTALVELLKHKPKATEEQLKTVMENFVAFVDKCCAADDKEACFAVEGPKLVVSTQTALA
Assay [6] deals with T4, mouse EphA2 recombinant protein (Fc chimera, R&D Systems, cat#639-A2) (mouse, UniProt Q03145 26-535).
T4 construct: Biotinylated for the Octet assay; also called mEphA2-Fc; mEphA2; Fc part of the bought chimera not given
T4 sequence (Q03145 26-535, change not shown): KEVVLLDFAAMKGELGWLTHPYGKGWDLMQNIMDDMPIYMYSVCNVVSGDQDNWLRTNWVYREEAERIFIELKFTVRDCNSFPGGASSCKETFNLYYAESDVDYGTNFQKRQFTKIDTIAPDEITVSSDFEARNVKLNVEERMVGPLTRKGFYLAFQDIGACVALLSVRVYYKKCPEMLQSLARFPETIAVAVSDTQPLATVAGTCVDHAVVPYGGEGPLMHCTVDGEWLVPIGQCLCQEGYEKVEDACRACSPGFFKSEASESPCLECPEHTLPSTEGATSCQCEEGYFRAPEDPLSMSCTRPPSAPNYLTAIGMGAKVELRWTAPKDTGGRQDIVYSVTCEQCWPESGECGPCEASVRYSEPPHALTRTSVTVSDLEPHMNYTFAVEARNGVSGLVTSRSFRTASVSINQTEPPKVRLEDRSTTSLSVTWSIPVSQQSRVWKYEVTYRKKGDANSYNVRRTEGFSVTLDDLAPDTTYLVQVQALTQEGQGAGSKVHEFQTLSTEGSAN
Nature of the assay: SPR, Biacore 3000, on mEphA2.

Assay [7] deals with T1, human EphA2 receptor expressed on cells …. As to the kind of experiment: FACS on CHO cells transfected with human EphA2.
Assay [8] addresses T3, human EphA2 recombinant protein …. As to the kind of experiment: BLI, Octet Red, biotinylated huEphA2 on streptavidin sensors, steady state fit (column head prints EC50, title KD). A general note: BLI is a label-free optical method that tracks binding on a fibre tip over time.
In assay [9] the target is T4, mouse EphA2 recombinant protein (Fc …). As to the kind of experiment: BLI, Octet Red, biotinylated mEphA2 on streptavidin sensors, steady state fit (column head prints EC50, title KD).
The target in assay [10] is T3, human EphA2 recombinant protein …. As to the kind of experiment: end-point titration ELISA on huEphA2.
The target in assay [11] is T4, mouse EphA2 recombinant protein (Fc …). As to the kind of experiment: end-point titration ELISA on mEphA2.
Assay [12] concerns the target T3, human EphA2 recombinant protein …. Nature of the assay: SPR, Biacore 3000, immobilized huEphA2 extracellular domain, KDequilibrium.
For assay [13] the target is unchanged. As to the kind of experiment: SPR, Biacore 3000, immobilized huEphA2 extracellular domain, KDkinetic.
Assay [14] shares this target. Nature of the assay: SPR, Biacore 3000, immobilized huEphA2 extracellular domain.

Changes are numbered by the printed parent chain.

T1 sequence (P29317 24-976): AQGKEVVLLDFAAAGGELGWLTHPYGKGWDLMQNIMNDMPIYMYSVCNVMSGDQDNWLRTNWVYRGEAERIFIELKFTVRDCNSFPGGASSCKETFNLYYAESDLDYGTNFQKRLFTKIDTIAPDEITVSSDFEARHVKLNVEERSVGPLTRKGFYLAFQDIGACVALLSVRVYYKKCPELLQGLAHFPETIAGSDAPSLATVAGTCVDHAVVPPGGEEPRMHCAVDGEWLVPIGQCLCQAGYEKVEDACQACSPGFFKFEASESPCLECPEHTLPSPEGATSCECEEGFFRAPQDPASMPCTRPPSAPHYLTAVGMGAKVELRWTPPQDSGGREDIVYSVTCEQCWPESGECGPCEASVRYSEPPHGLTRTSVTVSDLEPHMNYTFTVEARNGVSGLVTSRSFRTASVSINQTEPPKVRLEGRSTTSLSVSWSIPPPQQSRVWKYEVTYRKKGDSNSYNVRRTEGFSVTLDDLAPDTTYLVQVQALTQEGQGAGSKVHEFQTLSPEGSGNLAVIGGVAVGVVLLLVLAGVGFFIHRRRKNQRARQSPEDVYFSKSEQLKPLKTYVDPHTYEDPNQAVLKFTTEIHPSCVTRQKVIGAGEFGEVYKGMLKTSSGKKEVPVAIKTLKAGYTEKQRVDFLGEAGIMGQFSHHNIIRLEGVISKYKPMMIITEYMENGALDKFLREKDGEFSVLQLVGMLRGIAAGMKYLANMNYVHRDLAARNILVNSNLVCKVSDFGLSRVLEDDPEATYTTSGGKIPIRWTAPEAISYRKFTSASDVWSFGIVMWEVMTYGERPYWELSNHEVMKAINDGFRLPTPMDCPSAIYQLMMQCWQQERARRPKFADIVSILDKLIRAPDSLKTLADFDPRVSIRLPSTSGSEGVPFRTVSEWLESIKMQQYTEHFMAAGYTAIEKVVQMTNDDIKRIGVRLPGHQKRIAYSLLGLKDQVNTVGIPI
T2 sequence (P55899 24-297, chain 1 of 2): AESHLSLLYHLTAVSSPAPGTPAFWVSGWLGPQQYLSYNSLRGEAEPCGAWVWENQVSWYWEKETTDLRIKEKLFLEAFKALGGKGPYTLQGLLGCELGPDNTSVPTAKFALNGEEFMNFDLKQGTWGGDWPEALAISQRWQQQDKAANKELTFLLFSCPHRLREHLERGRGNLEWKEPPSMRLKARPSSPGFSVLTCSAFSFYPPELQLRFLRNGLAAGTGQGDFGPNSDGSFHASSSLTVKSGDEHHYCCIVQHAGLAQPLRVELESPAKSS
T2 sequence (P61769 21-119, chain 2 of 2, further chain): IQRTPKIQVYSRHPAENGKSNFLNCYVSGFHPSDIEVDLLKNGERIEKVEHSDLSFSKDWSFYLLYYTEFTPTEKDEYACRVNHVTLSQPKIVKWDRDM

B1: B11 modified CH2 domain SEQ ID NO: 91 (C terminal cysteine) conjugated with Biotin-dPEG11 (designed binder)
chain: GPSVFLFPPKPKDTLMISRTPEVTCVVVDYRADYLDVKFNWYVNGAEVHHAQTKPRQYDPLYGYRVVSVLTVTHQDWLNGKEYTCKVSNKALPAPIQKTISKDC
modifications: conjugated with Biotin-dPEG11-MAL after reduction with DTT; the residue that carries it is not stated (chain has a C terminal cysteine)
notes: also called B11-dPEG-biotin
For the molecule B1, the binding result in [1] is reported as “binds”.

B2: wild type CH2D (wild type human IgG CH2 domain) (other)
chain: APELLGGPSVFLFPPKPKDTLMISRTPEVTCVVVDVSHEDPEVKFNWYVDGVEVHNAKTKPREEQYNSTYRVVSVLTVLHQDWLNGKEYKCKVSNKALPAPIEKTISKAK
notes: also called CH2wt
As usually defined, the Kd is the concentration at which binding is half-saturated. On to B2, for which the binding result in [2] is reported as “no binding (tested: about 3.6 µM)”. In the assay with FcRn, this molecule gave a Kd of 1660 nM.

B3: B11 modified CH2 domain SEQ ID NO: 89 (C terminal cysteine and N terminal hinge sequence) conjugated with Biotin-dPEG11 (designed binder)
chain: GSCDKTHTAPEKKGGPSVFLFPPKPKDTLMISRTPEVTCVVVDYRADYLDVKFNWYVNGAEVHHAQTKPRQYDPLYGYRVVSVLTVTHQDWLNGKEYTCKVSNKALPAPIQKTISKDC
modifications: conjugated with Biotin-dPEG11-MAL after reduction with DTT; the residue that carries it is not stated (chain has a C terminal cysteine)
notes: also called B11-dPEG-biotin
For the molecule B3, in assay [1], the binding result is recorded as “binds”.

B4: B11 modified CH2 domain SEQ ID NO: 90 (N terminal hinge sequence) conjugated with Biotin-dPEG11 (designed binder)
chain: B3 chain with C118K
modifications: conjugated with Biotin-dPEG11-MAL after reduction with DTT; the residue that carries it is not stated
notes: also called B11-dPEG-biotin
Regarding B4, the binding result in [1] is recorded as “binds”.

B5: E10 modified CH2 domain (first generation loop 2 clone, parental clone of the affinity maturation) (designed binder)
chain: GPSVFLFPPKPKDTLMISRTPEVTCVVVDVSHEDPEVKFNWYVDGAEVHHAQTKPRQYDPLYGYRVVSVLTVLHQDWLNGKEYKCKVSNKALPAPIEKTISKAK
notes: purified protein elsewhere; also called E10par
The term koff denotes the first-order rate constant of dissociation. One may read the kon as the second-order rate constant of association. On to B5, for which the binding result in assay [3] is “binds”; in [4], “binds”; in assay [5] it was “no binding”. The Kd with FcRn amounted to 3260 nM; in assay [6] it was 97 nM. For the same molecule, in assay [6], the koff came out at 0.008 s⁻¹. The kon in [6] turned out to be 79100 M⁻¹ s⁻¹.

B6: H6 modified CH2 domain (first generation loop 2 clone) (designed binder)
chain: B5 chain with Q57R, Y58V, Y62G
notes: purified on a Nickel column from E. coli periplasm for protein ELISA and SPR
Regarding B6, the binding result in [3] was “binds”. Moreover, the binding result in assay [4] is reported as “binds”. For the same molecule, the binding result in [5] is on record as “no binding”. Further, in assay [6], the Kd was found to be 873 nM, the koff is 0.008 s⁻¹ and the kon was 9610 M⁻¹ s⁻¹.

B7: D2 modified CH2 domain (affinity matured, loop 1 YEAAAL, loop 2 of E10) (designed binder)
chain: B5 chain with V30Y, S31E, H32A, E33A, D34A, P35L
notes: Expressed in Shuffle cells, purified on HisTrap
Broadly, the EC50 is the concentration that produces a half-maximal response. Turning to B7, the EC50 in assay [7] is 1310 nM; in assay [10], 2.55 nM; in assay [11], 1.97 nM. The Kd in assay [8] is 20 nM; in [9], 18 nM.

B8: B11 modified CH2 domain (affinity matured, loop 1 YRADYL, loop 2 of E10) (designed binder)
chain: B5 chain with V30Y, S31R, H32A, E33D, D34Y, P35L
Regarding B8, the EC50 was 403 nM in assay [7], 4.43 nM in assay [10] and 9.89 nM in assay [11]. Moreover, the Kd in [8] was 3.1 nM; in assay [9] it was 5.5 nM; in assay [12] it was 13.9 nM; in assay [13], 13 nM. The koff in assay [14] worked out at 0.0158 s⁻¹. Moreover, in [14], the kon came to 1.21e+06 M⁻¹ s⁻¹.

B9: H3 (first generation loop 2 clone, loop 2 AYYALGG) (designed binder)
chain: B5 chain with Q57A, D59Y, P60A, Y62G
notes: From library #15 (Glu293 to Thr299 randomised); A9 is kept apart as m12; also called H3par
Turning to B9, in assay [6], the dissociation constant (Kd) was determined as 383 nM, the koff was 0.014 s⁻¹ and the kon is 36400 M⁻¹ s⁻¹.

B10: G7 modified CH2 domain (affinity matured, loop 1 PHLGVD, loop 2 of E10) (designed binder)
chain: B5 chain with V30P, S31H, H32L, E33G, D34V, P35D
Take B10: the EC50 in [7] stood at 333 nM; in [10], 8.06 nM; in assay [11], 3.18 nM. The Kd in assay [8] amounted to 18 nM; in [9], 21 nM; in assay [12] it was 22 nM; in [13], 21 nM. Besides, in [14], the koff was determined as 0.0375 s⁻¹. Also, the kon in assay [14] came to 1.8e+06 M⁻¹ s⁻¹.

Values taken from patent US20170306032A1 (RESEARCH CORPORATION TECHNOLOGIES, published 2017).
